Laboratory results from PMC9953004, “Scandium-44 Radiolabeled Peptide and Peptidomimetic Conjugates Targeting Neuropilin-1 Co-Receptor as Potential Tools for Cancer Diagnosis and Anti-Angiogenic Therapy” (Biomedicines, 2023).
Primed or numbered codes have the meaning given here. Where no end group is shown, it is not given here. Side-chain parts run from the residue outwards. [ ]: non-standard residue; d: D form. The star is where a group is joined. DOTA″ = DOTA chelator, carrying Sc, O=C([O-])CN1CCN(CC(=O)[O-])CCN(CC(=O)*)CCN(CC(=O)[O-])CC1.[Sc+3]; DOTA′ = DOTA-Sc chelate, O=C([O-])CN1CCN(CC(=O)[O-])CCN(CC(=O)*)CCN(CC(=O)[O-])CC1.[Sc+3]; hArg = N=C(N)NCCCC[C@H](N)C(=O)O; Dab = NCC[C@H](N)C(=O)O; Ahx = NCCCCCC(=O)O

T1: Recombinant human NRP-1 (neuropilin-1 co-receptor) (human, UniProt O14786 22-856)
T1 construct: neuropilin-1, human, recombinant; It is probably a soluble extracellular construct (surmise); source: bought: BioLegend
T1 sequence (looked up): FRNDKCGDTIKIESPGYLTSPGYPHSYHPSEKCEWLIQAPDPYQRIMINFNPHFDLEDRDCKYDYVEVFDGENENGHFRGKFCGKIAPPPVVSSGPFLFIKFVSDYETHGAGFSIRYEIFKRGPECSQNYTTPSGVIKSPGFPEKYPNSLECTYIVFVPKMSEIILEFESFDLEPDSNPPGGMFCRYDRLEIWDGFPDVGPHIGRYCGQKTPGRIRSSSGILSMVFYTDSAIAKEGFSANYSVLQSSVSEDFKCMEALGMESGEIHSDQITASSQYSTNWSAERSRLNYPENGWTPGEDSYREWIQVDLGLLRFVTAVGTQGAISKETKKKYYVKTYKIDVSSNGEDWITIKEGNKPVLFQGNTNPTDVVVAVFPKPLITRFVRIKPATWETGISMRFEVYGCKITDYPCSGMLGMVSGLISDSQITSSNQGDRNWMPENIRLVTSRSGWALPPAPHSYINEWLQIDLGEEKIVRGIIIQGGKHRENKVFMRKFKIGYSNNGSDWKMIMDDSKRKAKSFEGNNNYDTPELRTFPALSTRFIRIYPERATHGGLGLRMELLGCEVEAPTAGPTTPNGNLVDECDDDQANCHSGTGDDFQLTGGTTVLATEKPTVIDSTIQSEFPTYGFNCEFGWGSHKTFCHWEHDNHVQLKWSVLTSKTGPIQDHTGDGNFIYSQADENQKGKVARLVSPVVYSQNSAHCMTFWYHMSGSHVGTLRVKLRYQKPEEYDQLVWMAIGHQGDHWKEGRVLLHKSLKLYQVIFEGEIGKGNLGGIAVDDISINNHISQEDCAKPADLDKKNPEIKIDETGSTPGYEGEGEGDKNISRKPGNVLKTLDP

B1: Lys(DOTA-Sc)-A7R (peptide)
peptide: H-K(DOTA′)ATWLPPR
modifications: also: DOTA chelating Sc
notes: Lys(DOTA)-Ala-Thr-Trp-Leu-Pro-Pro-Arg; the Lys is a linker before A7R; also called Sc-1bis; source: bought: CASLO ApS (conjugate 1bis), complexed with ScCl3
B2: Ala-Thr-Trp-Leu-Pro-Pro-Arg (A7R) heptapeptide (peptide)
peptide: ATWLPPR
notes: found by a mutated phage library screening; free C-terminal carboxyl group; also called ^LA7R; source: synthetic peptide (SPPS, Fmoc chemistry)
B3: Sc-DOTA-Ahx-A7R (peptide)
peptide: {DOTA″-Ahx}-ATWLPPR
modifications: also: Sc chelated by DOTA
notes: A7R peptide with linker and chelator on the N-terminus; also called Sc-1; source: synthetic peptide conjugate (SPPS), complexed with ScCl3

biological target: T1, Recombinant human NRP-1 (neuropilin-1 …); assay: ELISA; competitive; recombinant human NRP-1 coated on a 96-well plate (200 ng/well, overnight, 4 °C), blocked with 0.5% BSA in PBS; 50 µL compound in PBS (100, 50, 25, 12.5, 6.75 µM) plus 50 µL (400 ng/mL) human (bt)-VEGF-A165 in PBS with 4 µg/mL heparin; 2 h at room temperature; streptavidin-HRP, chemiluminescence; IC50 by nonlinear regression, mean ± SD of three experiments; conditions: both partners purified

First: [dR][dP][dP][dL][dW][dT][dA] (also called ^DR7A) [retro-inverso isomer of A7R (DArg-DPro-DPro-DLeu-DTrp-DThr-DAla)]
Second: K(hArg)[Dab]([Ahx-DOTA″])PR (also: Sc chelated by DOTA) [Lys(hArg)-Dab(Ahx-DOTA-Sc)-Pro-Arg]
The IC50 of the first is higher: greater than 100 µM for the first, 17.9 µM for the second.

Going from K(hArg)[Dab]PR [branched peptidomimetic Lys(hArg)-Dab-Pro-Arg (K4R)] to B1, the IC50 rises from 4.83 µM to 18.1 µM (3.7-fold).

B2 and B3 are within 1.5-fold of each other in IC50: 17.5 µM for the first, 22.5 µM for the second.
